Experimental data published in patent US20060035245, “Modulators of enzymatic nucleic acid elements mobilization” (published 2006).

Molecular target: Tn5 transposase hyperactive mutant (EK54, MA56, LP372) (UniProt Q46731 Q46731:1-476, E54K,M56A,L372P)
Experiment: EMSA; complex assembly, inhibited by small molecules with IC50 3.5-46 uM
Details: chain copies: 2; label: fluorescein 5' end of transferred strand
Protocol: For FP analysis, 60 μL reactions were analyzed using the FP protocol on a Wallac Victor V plate reader and a 7% native polyacrylamide gel was used in gel shift assays. For compound screening and subsequent analysis, 1 μL of either DMSO or test compound (final concentration 80 μM) was added to the synapsis reactions. Compound screening was carried out using a Beckman Coulter Biomek FX in a 384 well format. […] IC₅₀ values were obtained by fitting inhibitor titration data (0, 0.01, 0.05, 0.1, 0.5, 2.5, 10, 20, 35, 50, 100, 200, 400, 800 μM) to an exponential decay.

B1: 60 bp Tn5 substrate for inhibitor verification (dsDNA)
DNA 1: GGCCACGACACGCTCCCGCGCTGTCTCTTATACACATCTTGAGTGAGTGAGCATGCATGT
DNA 2: ACATGCATGCTCACTCACTCAAGATGTGTATAAGAGACAGCGCGGGAGCGTGTCGTGGCC
Q: Does B1 bind?
A: binds
